Results on three molecules are retold here after paper PMC3135353 (The Journal of Experimental Medicine, 2011).

Sequences and labels used below:
T1: B7-H6, extracellular portion (residues Asp25-Ser262) (human, UniProt Q68D85 25-262, N-linked glycans seen at Asn43, Asn57 and Asn208)
T1 sequence (looked up): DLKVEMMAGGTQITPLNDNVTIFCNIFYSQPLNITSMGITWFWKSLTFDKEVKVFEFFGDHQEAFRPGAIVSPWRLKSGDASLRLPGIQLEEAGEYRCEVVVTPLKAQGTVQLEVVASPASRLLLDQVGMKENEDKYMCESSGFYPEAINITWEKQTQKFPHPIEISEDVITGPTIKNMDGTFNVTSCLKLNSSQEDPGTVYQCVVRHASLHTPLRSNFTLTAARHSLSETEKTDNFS

B1: NKp30 F85A/L86A mutant, extracellular portion (domain or fragment, human, UniProt O14931 19-135, looked up)
chain: LWVSQPPEIRTLEGSSAFLPCSFNASQGRLAIGSVTWFRDEVVPGKEVRNGTPEFRGRLAPLASSRAAHDHQAELHIRDVRGHDASIYVCRVEVLGLGVGTGNGTRLVVEKEHPQLG
B2: NKp30 S52R mutant, extracellular portion (domain or fragment, human, UniProt O14931 19-135, looked up)
chain: LWVSQPPEIRTLEGSSAFLPCSFNASQGRLAIGRVTWFRDEVVPGKEVRNGTPEFRGRLAPLASSRFLHDHQAELHIRDVRGHDASIYVCRVEVLGLGVGTGNGTRLVVEKEHPQLG
B3: NKp30 I50A/S52A mutant, extracellular portion (domain or fragment, human, UniProt O14931 19-135, looked up)
chain: LWVSQPPEIRTLEGSSAFLPCSFNASQGRLAAGAVTWFRDEVVPGKEVRNGTPEFRGRLAPLASSRFLHDHQAELHIRDVRGHDASIYVCRVEVLGLGVGTGNGTRLVVEKEHPQLG

For orientation: Kd means a measure of binding affinity in units of concentration. Low values mean a tighter complex, high ones a looser complex.

In this test the target is T1, B7-H6, extracellular portion (residues …). Put plainly: SPR.
In the case of B1, binding was put at a Kd of 53 µM.
Regarding B2, the Kd was 150 µM. This Kd is about 2.8-fold higher than that of the molecule before.
To B3 belongs 14 µM.
